Target: T1, G. violaceus transcriptional regulator, with His tag (Gloeobacter violaceus PCC 7421)
T1 construct: GvTcR, helix-turn-helix type transcriptional regulator of Gloeobacter violaceus PCC 7421, NCBI WP_011141437.1; gene amplified from genomic DNA with the printed primers (forward from the start codon, reverse adds His6 before the stop codon); also called GvTcR; HTH transcription factor protein; source: E. coli UT5600, purified (Ni-NTA); also in cell lysate; also co-expressed with GR from one pKA001 …
Test: ITC; MicroCal ITC200, room temperature, sonication buffer (150 mM NaCl, 50 mM Tris-HCl, pH 7.0) with 0.02% DDM; which protein was titrated is not told
Details: both partners purified

B1: GR R69A/K141A double mutant (natural protein)
chain: MLMTVFSSAPELALLGSTFAQVDPSNLSVSDSLTYGQFNLVYNAFSFAIAAMFASALFFFSAQALVGQAYRLALLVSAIVVSIAGYHYFRIFNSWDAAYVLENGVYSLTSEKFNDAYRYVDWLLTVPLLLVETVAVLTLPAAEARPLLIKLTVASVLMIATGYPGEISDDITTRIIWGTVSTIPFAYILYVLWVELSRSLVRQPAAVQTLVRNMRWLLLLSWGVYPIAYLLPMLGVSGTSAAVGVQVGYTIADVLAKPVFGLLVFAIALVKTKADQESSEPHAAIGAAANKSGGSLIS
modifications: retinal chromophore bound by a Schiff base (residue not given)
- Kd: 6.2 ± 3.15 mM

Source: article PMC11217422, “Proton-pumping photoreceptor controls expression of ABC transporter by regulating transcription factor through light” (Communications Biology, 2024)
